Reference: US20220089702A1 (published 2022)

Target: recombinant human tau
Assay: SPR

Kd: 5.77 nM
B1: 7G6 (antibody, V domains shown)
VH: EVQLQQSGAELVRPGALVKLSCKASGFNIKDYYIHWVKQRPEQGLEWIGWIDPENGETVYDPKFQGKASITSDTSSNTAYLQLRSLTSEDTAVYYSTSLDFWGQGTSVTVSS
VL: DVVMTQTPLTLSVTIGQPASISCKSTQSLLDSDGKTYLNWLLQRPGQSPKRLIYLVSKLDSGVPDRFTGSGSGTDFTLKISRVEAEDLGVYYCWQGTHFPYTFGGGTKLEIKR
